# Laboratory results as given in US20200199213A1 (Eli Lilly, published 2020).
# Where a chain is given by its changes, count along the chain named. In names and notes the source's numbering stands.
# T1: human ANGPTL8 (human, UniProt Q6UXH0 22-198)
# T1 construct: Biotinylated in the ELISA assays; also called hANGPTL8; free ANGPTL8
# T1 sequence: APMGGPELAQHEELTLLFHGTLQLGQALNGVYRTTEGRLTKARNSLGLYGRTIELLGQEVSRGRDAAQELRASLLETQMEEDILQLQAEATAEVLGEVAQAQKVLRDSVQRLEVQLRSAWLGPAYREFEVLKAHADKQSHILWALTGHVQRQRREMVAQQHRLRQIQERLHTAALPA
# T2: human ANGPTL3 (human, UniProt Q9Y5C1 17-460)
# T2 construct: Biotinylated in the ELISA assays; also called hANGPTL3; free ANGPTL3
# T2 sequence: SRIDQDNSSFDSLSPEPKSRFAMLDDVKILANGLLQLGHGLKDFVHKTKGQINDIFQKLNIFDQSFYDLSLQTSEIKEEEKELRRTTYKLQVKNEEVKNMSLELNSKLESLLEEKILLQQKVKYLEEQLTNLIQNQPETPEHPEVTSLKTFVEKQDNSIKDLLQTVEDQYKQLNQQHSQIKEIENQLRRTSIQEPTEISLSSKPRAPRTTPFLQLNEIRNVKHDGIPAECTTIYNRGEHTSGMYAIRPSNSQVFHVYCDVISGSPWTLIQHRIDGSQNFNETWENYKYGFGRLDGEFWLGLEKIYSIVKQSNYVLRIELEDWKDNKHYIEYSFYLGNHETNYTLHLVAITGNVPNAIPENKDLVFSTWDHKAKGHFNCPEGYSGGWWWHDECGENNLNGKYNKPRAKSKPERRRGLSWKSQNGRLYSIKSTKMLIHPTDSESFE
# T3: human ANGPTL3/8 complex (human, UniProt Q9Y5C1 17-460; Q6UXH0 22-198, limits assumed)
# T3 construct: also called hANGPTL3/8 complex; ANGTPL3/8 complex
# T3 sequence 1: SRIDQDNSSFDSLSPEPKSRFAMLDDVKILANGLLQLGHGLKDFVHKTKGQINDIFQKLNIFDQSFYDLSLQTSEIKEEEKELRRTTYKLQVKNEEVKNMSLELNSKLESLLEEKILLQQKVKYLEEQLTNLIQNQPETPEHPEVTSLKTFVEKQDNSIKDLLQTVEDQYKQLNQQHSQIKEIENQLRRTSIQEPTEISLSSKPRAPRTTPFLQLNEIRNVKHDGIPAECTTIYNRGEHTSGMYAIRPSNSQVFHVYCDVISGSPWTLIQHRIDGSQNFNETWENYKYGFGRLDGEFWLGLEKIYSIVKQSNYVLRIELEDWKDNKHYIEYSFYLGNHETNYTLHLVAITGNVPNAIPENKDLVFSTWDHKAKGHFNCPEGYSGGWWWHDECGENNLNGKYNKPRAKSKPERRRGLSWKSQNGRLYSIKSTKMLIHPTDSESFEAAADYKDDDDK
# T3 sequence 2: T1 sequence
# B1: anti-ANGPTL3/8 complex Ab having a LC of SEQ ID NO:5 and a HC of SEQ ID NO:6 (antibody, human IgG4 S228P, kappa, F234A L235A, V domains shown)
# VH: QVTLKESGPTLVKPTQTLTLTCTFSGFSLSISGVGVGWIRQPPGKALEWLALIYRNDDKRYSPSLKSRLTITKDTSKNQVVLTLTNMDPVDTATYYCARTYSSGWYGNWFDPWGQGTLVTVSS
# VL: DIVMTQTPLSLPVTPGEPASISCRSSQSLLDSDDGNTYLDWYLQKPGQSPQLLIYMLSYRASGVPDRFSGSGSGTDFTLKISRVEAEDVGIYYCMQRIEFPLTFGGGTKVEIKR
# notes: In the ELISA assays tested as IgG from CHO supernatants; also called the Ab
# B2: Ab with LC variant having a D31S mutation (SEQ ID NO:21) and a HC of SEQ ID NO:6 (antibody, human IgG4 S228P, kappa, F234A L235A, V domains shown)
# VH: B1 VH
# VL: B1 VL with D31S
# notes: also called D31S Variant Ab; D31S Ab
# B3: Ab with LC variant having a E99Q mutation (SEQ ID NO:25) and a HC of SEQ ID NO:6 (antibody, human IgG4 S228P, kappa, F234A L235A, V domains shown)
# VH: B1 VH
# VL: B1 VL with E99Q
# notes: also called E99Q Variant Ab; E99Q Ab
# B4: Ab with LC variant having a D33A mutation (SEQ ID NO:22) and a HC of SEQ ID NO:6 (antibody, human IgG4 S228P, kappa, F234A L235A, V domains shown)
# VH: B1 VH
# VL: B1 VL with D33A
# notes: also called D33A Variant Ab; D33A Ab
# Biological target: T1, human ANGPTL8
# Assay: ELISA; Ab captured by anti-human Fc; biotinylated antigen at 11.1 nM
# Procedure: (§1) ELISA Assay: Ab binding selectivity to either the ANGPTL3/8 complex, free ANGPTL3 or free ANGPTL8 is verified using standard ELISA assays. […] Ab from CHO supernatants after expression in CHO cells is then captured to the assay plate and results is an Ab concentration of 2 μg/ml. Biotinylated antigen (ANGPTL3, ANGPTL8 or ANGPTL3/8 complex) is added at varying concentrations by serial dilution to allow for Ab/antigen binding. Ab/antigen complexes are detected after the addition of alkaline phosphatase-conjugated neutravidin, and alkaline phosphatase substrate, and subsequent measurement of the optical density at 560 nm.
row,OD at 560 nm [OD 560 nm],Binder
1,0.045,B1
2,0.062,B2
3,0.062,B3
4,0.048,B4

# Biological target: T2, human ANGPTL3
# Assay: as above
# Procedure: as §1
row,OD at 560 nm [OD 560 nm],Binder
1,0.046,B1
2,0.062,B2
3,0.062,B3
4,0.06,B4

# Biological target: T3, human ANGPTL3/8 complex
# Assay: as above
# Procedure: as §1
row,OD at 560 nm [OD 560 nm],Binder
1,1.71,B1
2,1.74,B2
3,1.74,B3
4,1.64,B4

# Biological target: T1, human ANGPTL8
# Assay: ELISA; Ab captured by anti-human Fc; biotinylated antigen at 0.412 nM
# Procedure: as §1
row,OD at 560 nm [OD 560 nm],Binder
1,0.046,B1
2,0.062,B2
3,0.062,B3
4,0.047,B4

# Biological target: T2, human ANGPTL3
# Assay: as above
# Procedure: as §1
row,OD at 560 nm [OD 560 nm],Binder
1,0.043,B1
2,0.058,B2
3,0.058,B3
4,0.056,B4

# Biological target: T3, human ANGPTL3/8 complex
# Assay: as above
# Procedure: as §1
row,OD at 560 nm [OD 560 nm],Binder
1,0.231,B1
2,0.234,B2
3,0.234,B3
4,0.196,B4

# Biological target: T1, human ANGPTL8
# Assay: ELISA; Ab captured by anti-human Fc; biotinylated antigen at 100 nM
# Procedure: as §1
row,OD at 560 nm [OD 560 nm],Binder
1,0.072,B1
2,0.098,B2
3,0.098,B3
4,0.078,B4

# Biological target: T2, human ANGPTL3
# Assay: as above
# Procedure: as §1
row,OD at 560 nm [OD 560 nm],Binder
1,0.081,B1
2,0.084,B2
3,0.084,B3
4,0.082,B4

# Biological target: T3, human ANGPTL3/8 complex
# Assay: as above
# Procedure: as §1
row,OD at 560 nm [OD 560 nm],Binder
1,2.71,B1
2,2.47,B2
3,2.47,B3
4,2.39,B4

# Biological target: T1, human ANGPTL8
# Assay: single point ELISA; IgG captured by anti-human Fc; biotinylated antigen at 25 nM
# Procedure: (§2) Single Point ELISA (SPE) Assay: Ab binding selectivity to either the ANGPTL3/8 complex, free ANGPTL3 or free ANGPTL8 is initially verified using standard ELISA assays in a single point format. […] IgG secreted into supernatants after expression in CHO cells are then captured to the assay plate. Biotinylated antigen is added at a concentration of 25 nM to allow for Ab/antigen binding. Ab/antigen complexes are detected after adding alkaline phosphatase-conjugated neutravidin and alkaline phosphatase substrate, and subsequent measurement of the optical density at 560 nm. Positive binding is determined by a signal greater than 3 fold over the non-binding background signal.
row,OD at 560 nm [OD 560 nm],Binder
1,0.087,B1
2,0.072,B2
3,0.1,B3
4,0.118,B4

# Biological target: T2, human ANGPTL3
# Assay: as above
# Procedure: as §2
row,OD at 560 nm [OD 560 nm],Binder
1,0.074,B1
2,0.058,B2
3,0.083,B3
4,0.076,B4

# Biological target: T3, human ANGPTL3/8 complex
# Assay: as above
# Procedure: as §2
row,OD at 560 nm [OD 560 nm],Binder
1,2.3,B1
2,0.928,B2
3,1.54,B3
4,0.898,B4

# Biological target: T3, human ANGPTL3/8 complex
# Assay: cell-based or functional assay
% Max Derepression LPL [%],"Ab EC50 (nM), derepression of LPL [nM]",Binder
106,0.86,B2
106,0.49,B3
103,1.14,B4
